Laboratory results published in PMC7213981, “Enhancer architecture sensitizes cell specific responses to Notch gene dose via a bind and discard mechanism” (eLife, 2019).

B1: fly Su(H) (aa 98–523) (domain or fragment)
chain: not shown
notes: Suppressor of Hairless, Drosophila, residues 98-523; also called CSL
B2: mouse N1ICD (aa 1744–2113) (domain or fragment, UniProt Q01705 1744-2113, looked up)
chain: VLLSRKRRRQHGQLWFPEGFKVSEASKKKRREPLGEDSVGLKPLKNASDGALMDDNQNEWGDEDLETKKFRFEEPVVLPDLSDQTDHRQWTQQHLDAADLRMSAMAPTPPQGEVDADCMDVNVRGPDGFTPLMIASCSGGGLETGNSEEEEDAPAVISDFIYQGASLHNQTDRTGETALHLAARYSRSDAAKRLLEASADANIQDNMGRTPLHAAVSADAQGVFQILLRNRATDLDARMHDGTTPLILAARLAVEGMLEDLINSHADVNAVDDLGKSALHWAAAVNNVDAAVVLLKNGANKDMQNNKEETPLFLAAREGSYETAKVLLDHFANRDITDHMDRLPRDIAQERMHHDIVRLLDEYNLVRSPQ
notes: Notch1 intracellular domain, mouse, residues 1744-2113; not the full-length NICD; also called N1ICD1; NICD
B3: fly Mastermind (aa 87–307) (domain or fragment, Drosophila, UniProt P21519 87-307, looked up)
chain: PYNANLGATGGIAGITGGNGAGGPTNPGAVPTAPGDTMPTKRMPVVDRLRRRMENYRRRQTDCVPRYEQAFNTVCEQQNQETTVLQKRFLESKNKRAAKKTDKKLPDPSQQHQQQQHQQQQQHQQHQQHQQAQTMLAGQLQSSVHVQQKFLKRPAEDVDNGPDSFEPPHKLPNNNNNSNSNNNNGNANANNGGNGSNTGNNTNNNGNSTNNNGGSNNNGSE
notes: Mastermind, Drosophila, residues 87-307; not the full-length protein; also called Mam
B4: human MAML1 (aa 1–280) (domain or fragment, UniProt Q92585 1-280, looked up)
chain: MVLPTCPMAEFALPRHSAVMERLRRRIELCRRHHSTCEARYEAVSPERLELERQHTFALHQRCIQAKAKRAGKHRQPPAATAPAPAAPAPRLDAADGPEHGRPATHLHDTVKRNLDSATSPQNGDQQNGYGDLFPGHKKTRREAPLGVAISSNGLPPASPLGQSDKPSGADALQSSGKHSLGLDSLNKKRLADSSLHLNGGSNPSESFPLSLNKELKQEPVEDLPCMITGTVGSISQSNLMPDLNLNEQEWKELIEELNRSVPDEDMKDLFNEDFEEKKD
notes: Mastermind-like protein 1, human, residues 1-280; not the full-length protein; The results list MAML1 among the 'mouse' proteins, the methods say human MAML1; also called Mastermind

Key:
Assay in all cases: native gel or EMSA; complexes formed on IRDye-labelled 2xCSL and 1xSPS DNA probes in the same binding reaction; RBPJ/Su(H) 10 to 320 nM, 1 µM NICD/Mastermind; native polyacrylamide gel
Details in all cases: both partners purified
fly NICD (aa 1763–2412) = target: T1, fly NICD (aa 1763–2412) (Drosophila, UniProt P07207 1763-2412)
T1 construct: Notch intracellular domain, Drosophila, residues 1763-2412; not the full-length NICD; also called Notch intracellular domain
T1 sequence (looked up): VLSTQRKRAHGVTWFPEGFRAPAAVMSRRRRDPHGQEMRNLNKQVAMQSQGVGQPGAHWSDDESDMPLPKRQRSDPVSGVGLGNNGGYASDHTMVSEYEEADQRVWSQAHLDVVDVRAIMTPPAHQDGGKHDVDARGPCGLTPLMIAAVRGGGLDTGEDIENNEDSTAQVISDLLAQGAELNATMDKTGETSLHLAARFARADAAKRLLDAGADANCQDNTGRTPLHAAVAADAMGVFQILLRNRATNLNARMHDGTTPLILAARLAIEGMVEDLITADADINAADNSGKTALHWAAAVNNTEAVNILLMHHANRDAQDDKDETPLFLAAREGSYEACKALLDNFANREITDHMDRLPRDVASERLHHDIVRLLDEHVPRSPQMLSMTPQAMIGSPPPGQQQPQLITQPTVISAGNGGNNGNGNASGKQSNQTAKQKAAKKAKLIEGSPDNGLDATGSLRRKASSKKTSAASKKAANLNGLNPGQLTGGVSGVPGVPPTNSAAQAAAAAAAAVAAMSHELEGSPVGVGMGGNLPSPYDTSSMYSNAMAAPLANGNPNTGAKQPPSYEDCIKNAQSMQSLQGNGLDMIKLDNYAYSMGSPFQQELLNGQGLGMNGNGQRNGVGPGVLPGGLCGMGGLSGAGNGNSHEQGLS

mouse RBPJ (aa 53–474) = target: T2, mouse RBPJ (aa 53–474) (mouse, UniProt P31266 53-474)
T2 construct: RBPJ, mouse, residues 53-474; also called CSL

fly Su(H) (aa 98–523) = target: B1
Chain of fly Su(H) (aa 98–523) (P28159 98-523): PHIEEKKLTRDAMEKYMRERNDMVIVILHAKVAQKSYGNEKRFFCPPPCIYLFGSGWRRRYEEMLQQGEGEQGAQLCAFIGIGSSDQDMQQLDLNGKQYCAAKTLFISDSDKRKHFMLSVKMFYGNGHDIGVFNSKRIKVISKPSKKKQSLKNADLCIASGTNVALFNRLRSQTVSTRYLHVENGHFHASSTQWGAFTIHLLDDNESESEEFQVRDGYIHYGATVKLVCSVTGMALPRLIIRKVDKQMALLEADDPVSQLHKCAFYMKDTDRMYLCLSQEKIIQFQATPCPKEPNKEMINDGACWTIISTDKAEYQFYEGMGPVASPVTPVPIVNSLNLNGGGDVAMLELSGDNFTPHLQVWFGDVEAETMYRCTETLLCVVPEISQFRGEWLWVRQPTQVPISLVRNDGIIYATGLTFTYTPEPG

T2 sequence (P31266 53-474): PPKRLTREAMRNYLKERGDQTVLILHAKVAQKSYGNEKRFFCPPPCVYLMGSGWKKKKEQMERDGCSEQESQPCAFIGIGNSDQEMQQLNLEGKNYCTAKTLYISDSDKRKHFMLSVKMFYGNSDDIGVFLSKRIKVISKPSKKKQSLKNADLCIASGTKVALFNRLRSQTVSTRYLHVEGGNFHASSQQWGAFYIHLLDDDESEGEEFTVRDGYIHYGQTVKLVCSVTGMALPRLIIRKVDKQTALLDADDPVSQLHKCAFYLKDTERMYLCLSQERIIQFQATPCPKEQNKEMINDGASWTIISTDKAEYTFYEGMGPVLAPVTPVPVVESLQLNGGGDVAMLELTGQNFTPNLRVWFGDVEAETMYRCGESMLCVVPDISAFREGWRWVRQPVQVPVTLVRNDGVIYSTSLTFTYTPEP

| binding result (mouse RBPJ (aa 53–474)) | also measured | Binder |
| --- | --- | --- |
|  | binding result (fly NICD (aa 1763–2412)): binds | B1 |
| binds |  | B2 |
|  | binding result (fly Su(H) (aa 98–523)): binds | B3 |
| binds |  | B4 |
